# Measurements reported in IntAct's records for PubMed 17909014.
# Columns and labels:
# limd1_mouse Limd1 = limd1_mouse Limd1 (UniProt Q9QXD8)
# ajuba_mouse Ajuba = ajuba_mouse Ajuba (UniProt Q91XC0)
# Sequence of limd1_mouse Limd1 (Q9QXD8 whole entry): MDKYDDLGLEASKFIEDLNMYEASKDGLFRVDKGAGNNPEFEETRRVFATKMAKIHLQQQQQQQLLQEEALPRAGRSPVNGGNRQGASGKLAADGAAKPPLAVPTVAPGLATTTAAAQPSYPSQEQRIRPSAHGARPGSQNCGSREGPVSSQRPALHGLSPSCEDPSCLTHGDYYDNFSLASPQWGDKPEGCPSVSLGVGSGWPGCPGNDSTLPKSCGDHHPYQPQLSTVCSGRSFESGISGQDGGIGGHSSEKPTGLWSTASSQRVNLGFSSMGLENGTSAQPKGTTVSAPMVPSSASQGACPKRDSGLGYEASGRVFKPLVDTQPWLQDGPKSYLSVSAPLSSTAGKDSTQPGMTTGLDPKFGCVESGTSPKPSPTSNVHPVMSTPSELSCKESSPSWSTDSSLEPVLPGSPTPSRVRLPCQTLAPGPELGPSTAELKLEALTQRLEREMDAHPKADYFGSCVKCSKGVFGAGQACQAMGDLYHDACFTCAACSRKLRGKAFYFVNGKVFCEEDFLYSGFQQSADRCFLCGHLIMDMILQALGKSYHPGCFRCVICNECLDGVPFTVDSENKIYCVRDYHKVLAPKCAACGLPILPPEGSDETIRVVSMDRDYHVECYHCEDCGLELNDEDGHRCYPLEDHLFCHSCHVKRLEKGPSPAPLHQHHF
effect of a mutation on the interaction (limd1_mouse Limd1),effect of a mutation on the interaction (ajuba_mouse Ajuba),Substance
disrupting interaction,disrupting interaction,"Zinc finger protein Gfi-1 (Homo sapiens), Q99684 F5A"
disrupting interaction,disrupting interaction,"Zinc finger protein Gfi-1 (Homo sapiens), Q99684 K10A;K11A"
disrupting interaction,disrupting interaction,"Zinc finger protein Gfi-1 (Homo sapiens), Q99684 F5A;L6A;V7A"
